± gives the standard deviation of the averaged measurements.
Tested on: Saccharomyces cerevisiae
Test: protein stability index of tFT-peptide fusion (C-terminal peptide) (PSI (0-1 scale)); higher = more stable (slower turnover)
Conditions: genetic background: wild type; temperature: 30 C
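Also: PSI is a weighted mean of sequencing reads over stability bins, variants kept only with over 10 reads, mCherry proximal and sfGFP distal, peptide attached via GGGS linker.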

| Sequence | protein stability index |
| --- | --- |
| CYIGGEVEFVGW | 0.727 ± 0.0094 |
| AGSSQWSLGQLG | 0.6345 ± 0.002 |
| SFASGFFVVKDF | 0.658 ± 0.031 |
| ERYKKRGKTNKV | 0.662 ± 0.0076 |
| RWGWGGYRGGVP | 0.7572 ± 0.0061 |
| LWCFVVGEVNGV | 0.6209 ± 0.0034 |
| PLPPRPPSPPPR | 0.699 ± 0.037 |
| PPPPPRPPAGFL | 0.924 ± 0.095 |
| PFPPPSAPPPSP | 0.71 ± 0.015 |
| PLPPPGRPPLLP | 0.639 ± 0.12 |
| RDPWESLDRCYP | 0.698 ± 0.034 |
| QSGQSELRVVPP | 0.72 ± 0.021 |
| LLSLHPRYPCTP | 0.76 ± 0.047 |
| GSSAVGGGGVWW | 0.819 ± 0.1 |
| EKRERKRDSGHR | 0.685 ± 0.063 |
| YRSEEFSGESGW | 0.769 ± 0.11 |
| LLPFTLHIPLRP | 0.6523 ± 0.0022 |
| PPFASPSPLPPP | 0.7006 ± 0.0069 |
| DFVLSASIGFTR | 0.673 ± 0.035 |
| LKSGRYSYFGSL | 0.734 ± 0.086 |
| PPPPPPPCFFPP | 0.715 ± 0.048 |
| PPHPPPPLLPAP | 0.715 ± 0.051 |
| LRQWRRERAIII | 0.601 ± 0.042 |
| GPGSFAPLPPRS | 0.684 ± 0.033 |
| VQYGHIVKGWCS | 0.697 ± 0.013 |
| SPIRLPATSPSR | 0.639 ± 0.046 |

| Sequence | protein stability index |
| --- | --- |
| GGWWWAVGFGGL | 0.66 ± 0.017 |
| KKEIGGSNWNKK | 0.632 ± 0.09 |
| PLLFGGGGVSVL | 0.70247 ± 0.00036 |
| SPPRPPCLPLTP | 0.713 ± 0.048 |
| LYGLFRIADVRR | 0.652 ± 0.15 |
| APITPNPLYLNH | 0.697 ± 0.055 |
| GKEIHREIIVTV | 0.618 ± 0.014 |
| ACARIGRDYVTP | 0.687 ± 0.016 |
| VYCIEFNRQWDA | 0.693 ± 0.048 |
| LGRLGAFITQPA | 0.671 ± 0.059 |
| AFRVPGSCAFSP | 0.641 ± 0.011 |
| PPFFSHDWYLRV | 0.695 ± 0.076 |
| ILVGPTDFLPLE | 0.651 ± 0.016 |
| AIALASTNLMAG | 0.713 ± 0.097 |
| VTYFIPVTNRAS | 0.605 ± 0.0074 |
| WGCFPGVVMGVS | 0.594 ± 0.02 |
| GAGMAGEVVGDG | 0.637 ± 0.026 |
| PPSHSPRPLSFL | 0.653 ± 0.08 |
| HWYLRCAVCEGV | 0.651 ± 0.022 |
| TYSTLHILLSSS | 0.602 ± 0.014 |
| SRRMFCACYVLS | 0.585 ± 0.031 |
| YTRILRKKLINK | 0.711 ± 0.11 |
| GSWGVGLGKVHW | 0.752 ± 0.022 |
| LHNQTLLLSEDD | 0.652 ± 0.037 |
| FPFCAFPPSPTC | 0.75 ± 0.038 |
| RCACLSCSFLLQ | 0.679 ± 0.017 |

| Sequence | protein stability index |
| --- | --- |
| VSVGCLFVVGRG | 0.713 ± 0.039 |
| GTVSEGAMSVGF | 0.809 ± 0.11 |
| TSSTPNALARIP | 0.71 ± 0.16 |
| RGRASVIWGGPG | 0.659 ± 0.086 |
| VGLFRESLFRRG | 0.714 ± 0.072 |
| GGRGGATRRGSL | 0.764 ± 0.055 |
| CSSTGVPGRRHE | 0.709 ± 0.013 |
| VVRFEGYVLGWG | 0.647 ± 0.072 |
| SWSAVPHSPLMP | 0.823 ± 0.068 |
| GLRLFWFRRVRA | 0.537 ± 0.012 |
| IPGVPPPRFSIR | 0.704 ± 0.034 |
| PLPLPPLPPPLP | 0.656 ± 0.021 |
| PLPLFPLPPVAP | 0.66 ± 0.012 |
| SRIFLFPTPTLF | 0.651 ± 0.096 |
| VGRWCCELVWGV | 0.645 ± 0.022 |
| SGPGGWNREVGR | 0.6841 ± 0.0024 |
| SPPHPPPRPPLL | 0.733 ± 0.041 |
| VRCSAASLKVRK | 0.675 ± 0.01 |
| RRTEHPRTRAAR | 0.692 ± 0.045 |
| FQSSSKSRPRPA | 0.669 ± 0.057 |
| FSSSMCLGMRLR | 0.639 ± 0.096 |
| KTKKNKQKSKKK | 0.705 ± 0.034 |
| GGGAWGGMCGVV | 0.717 ± 0.047 |
| TWIRIEQKTEVR | 0.631 ± 0.017 |
| TGFGSLWCRSSG | 0.743 ± 0.062 |
| MRKGNGGGPRRR | 0.728 ± 0.019 |

| Sequence | protein stability index |
| --- | --- |
| MGFARDVYGSVC | 0.702 ± 0.022 |
| VWFGLLTTVNID | 0.5657 ± 0.0048 |
| RTTERLTRWEFG | 0.686 ± 0.03 |
| SRPLSSPSPPPS | 0.723 ± 0.043 |
| SRVCPLLAPSLL | 0.671 ± 0.067 |
| KSSSVRQGWEGC | 0.728 ± 0.081 |
| YGGFLHALAMGG | 0.677 ± 0.0014 |
| SCIRATGSNVSP | 0.664 ± 0.029 |
| PPLPPRTPPPLS | 0.704 ± 0.077 |
| VVGRTNRYAVPH | 0.662 ± 0.061 |
| VVWGLGAGRMVW | 0.656 ± 0.076 |
| LLSGPTLSCVPT | 0.617 ± 0.043 |
| HHSAPARLAFRY | 0.673 ± 0.023 |
| RLHPSFPPPPPQ | 0.704 ± 0.029 |
| GRSIKGLLYQSL | 0.681 ± 0.025 |
| KRGKNKKYKNRF | 0.638 ± 0.074 |
| HPPSSSHTQPPR | 0.683 ± 0.014 |
| FVSLVATASHWV | 0.568 ± 0.033 |
| SPPPPLHPALPA | 0.656 ± 0.083 |
| SPPPPPPPLPPA | 0.731 ± 0.037 |
| LAFFPPPLPPSS | 0.698 ± 0.064 |
| GLRSVQISHIRQ | 0.694 ± 0.012 |
| YRRGLGEYRTRS | 0.688 ± 0.059 |
| SPPPHSTPSSTG | 0.712 ± 0.054 |
| TEKAEVSTSSCR | 0.71 ± 0.033 |
| LVLHWPSPREAL | 0.713 ± 0.071 |

| Sequence | protein stability index |
| --- | --- |
| ARNGVCTERSVL | 0.691 ± 0.028 |
| SVYLPLGVLQCI | 0.577 ± 0.032 |
| EQGIRHVRAIVV | 0.539 ± 0.012 |
| GEVIAYGSAWGL | 0.647 ± 0.014 |
| MNFCLGVFVDLA | 0.6857 ± 0.0037 |
| SFFSPFPSRICS | 0.829 ± 0.032 |
| SRGIRPYYRLLL | 0.596 ± 0.0094 |
| YPRPLSLSFLSL | 0.73 ± 0.048 |
| VVRWFGGGCVRG | 0.682 ± 0.033 |
| KRKHHKREKKKK | 0.677 ± 0.042 |
| EERNSVRGYTES | 0.734 ± 0.028 |
| KTLRRGYDWLQG | 0.681 ± 0.038 |
| PPLLTPSVPFSS | 0.715 ± 0.033 |
| GILRSDAVWSFI | 0.699 ± 0.042 |
| NNYPHSEKCLKE | 0.643 ± 0.009 |
| RATMFFLFPMFP | 0.622 ± 0.024 |
| ALVLYVSMSRGY | 0.677 ± 0.054 |
| TMFTISGWPLFG | 0.633 ± 0.044 |
| PSSPLFLPPPPP | 0.696 ± 0.023 |
| SEIKVIMNESKS | 0.679 ± 0.009 |
| GLPFRYASYLFS | 0.704 ± 0.031 |
| GIAACASSGLAV | 0.657 ± 0.034 |
| RKAKHWKNKIQK | 0.737 ± 0.048 |
| NTNSTRSDNVFD | 0.622 ± 0.011 |
| TYRLSHFFKILP | 0.566 ± 0.013 |
| KQEDIKNKKKKE | 0.679 ± 0.032 |

| Sequence | protein stability index |
| --- | --- |
| RGTWAVGGGRGG | 0.671 ± 0.065 |
| WFFSNLRRDCGG | 0.735 ± 0.016 |
| CVGSLGVVVGWG | 0.724 ± 0.013 |
| CSVFFFMGFLFA | 0.511 ± 0.13 |
| ELVSFPIGGMGS | 0.671 ± 0.056 |
| WLPSSLPPIVHH | 0.662 ± 0.018 |
| LNVVSRLLACGL | 0.642 ± 0.022 |
| LVPLFVLPYGHP | 0.768 ± 0.073 |
| GQQETIGLRAHI | 0.681 ± 0.025 |
| RGTGGGSESGVK | 0.661 ± 0.063 |
| FSHPLLRARRTW | 0.656 ± 0.086 |
| PAPPHPRIPSPT | 0.669 ± 0.073 |
| RGALQQLREHTS | 0.687 ± 0.055 |
| VPSLFLYGNPMY | 0.71 ± 0.036 |
| AGGARADKQGGG | 0.636 ± 0.071 |
| FPPPPPVPPPLS | 0.723 ± 0.047 |
| ARLDVFTMYKDR | 0.748 ± 0.056 |
| VGGVGEWCLVRL | 0.6746 ± 0.0046 |
| GCLDGLGLPCLS | 0.681 ± 0.079 |
| KNANLRLPWKAH | 0.667 ± 0.029 |
| VRAAAFCFVRFR | 0.55 ± 0.021 |
| VKTETNTDGKKR | 0.67 ± 0.15 |
| PSTPRPPRPPPL | 0.695 ± 0.027 |
| VVDGGEHVCYRI | 0.654 ± 0.082 |
| SSPLPPPPFAPL | 0.702 ± 0.022 |
| ALLAFMSSPRRL | 0.7001 ± 0.0028 |

| Sequence | protein stability index |
| --- | --- |
| PVSPAHLRRSLL | 0.775 ± 0.031 |
| GVGGGGIGVGMG | 0.7262 ± 0.0018 |
| GALLLVPFFWGE | 0.668 ± 0.018 |
| VGSGKYGVVGVG | 0.518 ± 0.029 |
| SKRQKKENLKET | 0.633 ± 0.044 |
| PPLPLLPSPSPL | 0.753 ± 0.086 |
| KKQKSKSAREAS | 0.658 ± 0.024 |
| DQFRLLQYWEAS | 0.72 ± 0.048 |
| FILSPGHFHRVL | 0.688 ± 0.076 |
| PPFSSRTRPPLC | 0.67 ± 0.023 |
| ADEGRGVGGVGG | 0.699 ± 0.061 |
| YVEGSWSSPRCR | 0.675 ± 0.12 |
| PRRAARLLPRPL | 0.693 ± 0.015 |
| LWIVLFRKCELP | 0.592 ± 0.018 |
| PPPSPPPQPHRP | 0.665 ± 0.018 |
| GGYGEGAVLFVG | 0.58 ± 0.012 |
| PPPHPPPPAPPY | 0.735 ± 0.019 |
| LSPPPHTSVPRL | 0.659 ± 0.12 |
| SNPCLPPPSFAS | 0.77 ± 0.019 |
| RHTPPTTPLSLL | 0.701 ± 0.096 |
| CLHSKPSPESRT | 0.687 ± 0.041 |
| SSCAWGGGLEVG | 0.683 ± 0.053 |
| FKFCLRSESSSE | 0.66 ± 0.085 |
| FPLPHVIPSPAS | 0.559 ± 0.022 |
| PSPPPPPLPPAG | 0.663 ± 0.097 |
| VSGGRQGGWGGW | 0.691 ± 0.034 |

| Sequence | protein stability index |
| --- | --- |
| APLGLSFVSAVI | 0.793 ± 0.087 |
| PPSSLPRLQCSP | 0.674 ± 0.054 |
| SLAFSVFWSIFL | 0.585 ± 0.015 |
| LMCSSGGGCSCG | 0.706 ± 0.023 |
| GWWLFRSRWWHE | 0.573 ± 0.022 |
| PPVPPLRPSCPS | 0.684 ± 0.01 |
| VRRMLSSLIEGH | 0.619 ± 0.0072 |
| PPPPPPPVLSSI | 0.647 ± 0.076 |
| GVLRPLVGALGM | 0.609 ± 0.0083 |
| SLPLLSLPLLDF | 0.535 ± 0.02 |
| PSLPPPPHSAFC | 0.698 ± 0.073 |
| GIHLAPVCASSP | 0.71 ± 0.035 |
| GVGREGGCWRTG | 0.702 ± 0.11 |
| PTPPHPSHPTAP | 0.665 ± 0.023 |
| LISNIFSFEWLW | 0.622 ± 0.032 |
| QDRATRPSHRTQ | 0.684 ± 0.03 |
| KGLLSITLRNLD | 0.63 ± 0.049 |
| VGGVVGVGSVGV | 0.775 ± 0.14 |
| NVENSNTAGKGV | 0.689 ± 0.024 |
| LPPRLPLSLDVL | 0.675 ± 0.086 |

— the supplement of paper PMC10724198
